# According to patent US7846719B2, “Express system of soluble glutaminyl cyclase” (Academia Sinica, priority 2006, dated 2010):
# B1: recombinant human QC (Homo sapiens) (protein)
# chain: ASAWPEEKNYHQPAILNSSALRQIAEGTSISEMWQNDLQPLLIERYPGSPGSYAARQHIMQRIQRLQADWVLEIDTFLSQTPYGYRSFSNIISTLNPTAKRHLVLACHYDSKYFSHWNNRVFVGATDSAVPCAMMLELARALDKKLLSLKTVSDSKPDLSLQLIFFDGEEAFLHWSPQDSLYGSRHLAAKMASTPHPPGARGTSQLHGMDLLVLLDLIGAPNPTFPNFFPNSARWFERLQAIEHELHELGLLKDHSLEGRYFQNYSYGGVIQDDHIPFLRRGVPVLHLIPSPFPEVWHTMDDNEENLDESTIDNLNKILQVFVLEYLHL
# notes: corresponding to the coding region of human QC (Ala33-Leu361) was re-amplified and inserted into a pET-43.1a expression vector; Nus fusion (pET-43.1a construct) or thioredoxin fusion (pET-32a construct) (N, cleaved yes); (His)6 (pET-43.1a construct: N- and C-terminal sites; pET-32a construct: 5'-end, upstream of the Factor Xa site); made in house; host or cells: E. coli BL21 (DE3)
# Substrate: NC(=O)CC[C@H](NC(=O)[C@@H](N)CCC(N)=O)C(=O)O
# Test: Spectrophotometric QC activity assay (glutamate dehydrogenase coupled), human QC expressed in E. coli
# Assay type: biochemical
# Conditions: other: substrate of human QC expressed in Escherichia coli cell, mean ± SD (n = 2), 50 mM Tris-HCl, pH 8.0
# Procedure: For the spectrophotometric method, the 500 μl assay solutions consisted of 15 units glutamate dehydrogenase, 12 mM α-ketoglutarate, 0.6 mM NADH (a reduced form of NAD (nicotinamide adenine dinucleotide)) and varying concentrations of synthetic substrate in 50 mM Tris-HCl, pH 8.0. Reactions were started by the addition of QC (0.04 to 2.5 μg), and the activity was monitored by recording the decrease of NADH absorbance at 340 nm.
# The Km and kcat values determined for the recombinant protein of the invention were very similar to the human QC expressed in Drosophila S2 cells, as evident in Table 1.
protein,measurement,value
B1,Km,0.6 ± 0.1 mM
same,kcat,8.6 ± 0.5 s⁻¹
same,kcat/Km,13700 ± 500 M⁻¹ s⁻¹
